The source of these data is article PMC11828871, “Structural basis of anticancer drug recognition and amino acid transport by LAT1” (Nature Communications, 2025).

The target in test [1] is T1, CD98hc (4F2hc; SLC3A2) (human, UniProt P08195).
T1 construct: CD98hc (4F2hc; SLC3A2), human, single membrane-spanning protein; The complex was purified by GFP-nanotrap and a FLAG-tag purification step was skipped; The TMD-only models hold only TM1' of CD98hc
Briefly: cryo-EM structure; LAT1–CD98hc in lipid nanodiscs (POPC:POPG:cholesterol 2:2:1, MSP2N2) complexed with Fab170, gel filtration; SEC buffer 20 mM Tris-HCl pH 9.0, 150 mM NaCl; with JPH203, L-Phe, melphalan, BCH, T3 or no ligand. Conditions: both partners purified. For orientation: SEC sorts molecules by how far they enter the pores of the column.

The target of test [2] is T2, LAT1–CD98hc heterodimeric complex (human, UniProt Q01650;P08195).
T2 construct: LAT1 (SLC7A5), human; as the chain of m1; CD98hc (4F2hc; SLC3A2), human; as the chain of m2
The test is described as above. Conditions: both partners purified.

T1 sequence (P08195 102-630): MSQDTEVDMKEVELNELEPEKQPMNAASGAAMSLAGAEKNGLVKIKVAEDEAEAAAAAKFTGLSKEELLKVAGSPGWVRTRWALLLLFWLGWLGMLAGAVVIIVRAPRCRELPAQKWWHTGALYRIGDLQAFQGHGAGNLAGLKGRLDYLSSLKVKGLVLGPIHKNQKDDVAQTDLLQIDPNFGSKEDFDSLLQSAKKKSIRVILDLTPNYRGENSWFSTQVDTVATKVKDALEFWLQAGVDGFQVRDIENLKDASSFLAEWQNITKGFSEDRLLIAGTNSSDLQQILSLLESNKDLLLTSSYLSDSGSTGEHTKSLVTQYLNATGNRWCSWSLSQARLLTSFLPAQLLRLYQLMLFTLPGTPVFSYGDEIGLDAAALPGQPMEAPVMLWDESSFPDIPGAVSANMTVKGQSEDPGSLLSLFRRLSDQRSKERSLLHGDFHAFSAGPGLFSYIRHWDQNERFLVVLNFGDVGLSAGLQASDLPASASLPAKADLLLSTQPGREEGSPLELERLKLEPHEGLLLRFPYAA
T2 sequence (Q01650 whole entry, chain 1 of 2): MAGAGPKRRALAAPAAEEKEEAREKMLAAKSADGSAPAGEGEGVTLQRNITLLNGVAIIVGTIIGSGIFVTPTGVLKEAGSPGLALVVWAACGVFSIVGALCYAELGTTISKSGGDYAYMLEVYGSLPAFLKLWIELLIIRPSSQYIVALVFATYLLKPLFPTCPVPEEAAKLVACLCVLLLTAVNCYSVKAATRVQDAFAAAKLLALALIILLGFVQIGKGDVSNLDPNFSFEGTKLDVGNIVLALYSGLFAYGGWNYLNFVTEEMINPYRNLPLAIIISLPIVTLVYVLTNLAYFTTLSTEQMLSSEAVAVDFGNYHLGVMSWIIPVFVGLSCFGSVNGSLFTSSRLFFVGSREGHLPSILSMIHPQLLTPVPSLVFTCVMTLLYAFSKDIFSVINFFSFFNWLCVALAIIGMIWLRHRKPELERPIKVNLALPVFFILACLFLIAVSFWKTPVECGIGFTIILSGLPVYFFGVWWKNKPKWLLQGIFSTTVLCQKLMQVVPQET
T2 sequence (P08195 102-630, chain 2 of 2): as the sequence (P08195 102-630) above

B1: Fab fragment from clone 170 (Fab170) (Fab, V domains shown)
VH: EVQLQQSGAELVKPGASVNLSCKASGYTFTNYWMHWVRLRPGQGLEWIGEIDPSDSYSYYSQNFKGKATLTVDQSSNTAYLQLTSLTSEDSAVYYCARGRQTYYPWFPYWGQGTLVTVSA
VL: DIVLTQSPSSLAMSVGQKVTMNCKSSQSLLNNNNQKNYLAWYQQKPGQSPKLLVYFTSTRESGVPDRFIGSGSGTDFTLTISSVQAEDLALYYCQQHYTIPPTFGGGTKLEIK
notes: Mouse monoclonal antibody raised against liposomes with purified LAT1–CD98hc; source: mouse hybridoma culture supernatant; IgG purified by Protein G column, digested by papain, Fab further purified on Protein A column
With B1, the binding result in test [1] and in test [2] was “binds” throughout.
